Laboratory results: PMC10643670, “Functional and structural diversity in deubiquitinases of the Chlamydia-like bacterium Simkania negevensis” (Nature Communications, 2023)

Target: T1, wild-type Met1-linked di-ubiquitin (UniProt P0CG48 1-76; P0CG48 1-76)
T1 construct: ubiquitin, first moiety of the linear fusion (residues 1-76 of the di-ubiquitin); ubiquitin, second moiety of the linear fusion (residues 77-152 of the di-ubiquitin); In the crystal each di-ubiquitin bridges two SnOTU molecules: residues 1-76 lie in the S1' site of one SnOTU and residues 77-152 in the S1 site of the other; also called linear di-ubiquitin; M1-linked di-ubiquitin; source: expressed …
Assay: crystal structure; catalytic inactive SnOTU 1-255 and linear di-ubiquitin mixed in a 1:1.1 ratio; sitting drop vapor diffusion, 4 °C; 0.25 M magnesium formate, 20% w/v PEG 3350, 0.02 M EDTA disodium salt
Conditions: both partners purified

B1: catalytically inactivated (C82A) fragment SnOTU 1-255 (domain or fragment)
chain: MSLPVKERPDAIYTFEGKTYENTSFSKTGIPIVGQPLKMEAYVHKEYTHVTSLEGKRFKSQLEEAAKIYGEQLHEIQGDGNALTTAFATSFLYLLNGNATLIATFDNILIGLDAHKNIPPVRQTIEKLKVKNDLELKQILASNETMFAFSSVIRHLARQKLPELGEPFSLLIDEMVPEEDGKEIEIACIGGLCQLLNICADVIYLRKDYDTFKIERYPNETGKPDLVILRKAAHFLSIILDSKKSIEERTNELGK
notes: resolved from residues 2 to 242 in PDB 8CMR; Amplified from S. negevensis genomic DNA (DSM No.27360), cloned into pOPIN-S; source: E. coli Rosetta (DE3) pLysS, purified (HisTrap FF, tag removal, SEC); not shown: His6, N-terminal, cleaved; Smt3, N-terminal, cleaved
binding result: binds
